Measured values taken from patent publication US20210145976A1 (ARO BIOTHERAPEUTICS, published 2021).
Where a chain is given by its changes, count along the chain named. Values belong to the binder of their own block, whether it stands above or below them.

Experiments:
[1] = biological target: T1, recombinant biotinylated CD71 extracellular domain (Sino Biologics) with an N-terminal 6His tag (human, UniProt P02786 89-760, biotinylated (sites not given)); test: screening ELISA
T1 construct: extracellular domain; also called hCD71; huCD71
T1 sequence (P02786 other isoform, or with tags, fused parts or gaps): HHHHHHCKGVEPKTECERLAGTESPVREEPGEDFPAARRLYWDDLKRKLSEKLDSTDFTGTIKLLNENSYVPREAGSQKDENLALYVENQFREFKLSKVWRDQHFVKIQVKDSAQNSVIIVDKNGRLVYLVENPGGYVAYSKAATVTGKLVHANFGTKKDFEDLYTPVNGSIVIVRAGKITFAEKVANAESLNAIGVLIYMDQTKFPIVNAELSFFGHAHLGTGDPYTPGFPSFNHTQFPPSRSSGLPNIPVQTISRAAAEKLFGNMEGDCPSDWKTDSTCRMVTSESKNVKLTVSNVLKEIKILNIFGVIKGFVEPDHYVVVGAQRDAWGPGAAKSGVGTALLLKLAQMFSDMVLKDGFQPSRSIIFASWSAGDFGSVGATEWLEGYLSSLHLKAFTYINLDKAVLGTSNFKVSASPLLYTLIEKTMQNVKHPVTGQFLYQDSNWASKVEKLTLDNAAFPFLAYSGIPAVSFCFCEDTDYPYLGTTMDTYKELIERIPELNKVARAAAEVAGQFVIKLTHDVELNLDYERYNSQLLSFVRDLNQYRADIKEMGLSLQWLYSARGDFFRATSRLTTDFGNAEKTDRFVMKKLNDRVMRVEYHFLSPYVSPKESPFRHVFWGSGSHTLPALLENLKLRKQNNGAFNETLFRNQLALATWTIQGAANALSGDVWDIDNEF

[2] = biological target: T1, recombinant biotinylated CD71 …; test: screening ELISA, ratio

B1: SEQ ID NO 228 (designed binder)
chain: MLPAPKNLVVSRVTEDSARLSWTAPDAAFDSFEIYYVEWSEAGEAIVLTVPGSERSYDLTGLKPGTEYRVEIRGVKGGSWSSPLSAIFTT
notes: FN3 domain
hCD71 [1]: 2.54e+06 | hCD71:HSA [2]: 1060

B4: SEQ ID NO 236 (designed binder)
chain: MLPAPKNLVVSRVTEDSARLSWTAPDAAFDSFWIEYYEELGSGEAIVLTVPGSERSYDLTGLKPGTEYRVYIYGVKGGYPSSPLSAIFTT
notes: FN3 domain
hCD71 [1]: 3.44e+06 | hCD71:HSA [2]: 2300

B5: SEQ ID NO 251 (designed binder)
chain: MLPAPKNLVVSRVTEDSARLSWTAPDAAFDSFFIGYLEPQPPGEAIVLTVPGSERSYDLTGLKPGTEYNVTIQGVKGGFPSMPLSAIVTT
notes: FN3 domain
hCD71 [1]: 2.74e+06 | hCD71:HSA [2]: 284

B6: SEQ ID NO 250 (designed binder)
chain: B5 chain with Q40Y, N69A, T71E, Q73A, F79L, P80L, M82S, V88S
notes: FN3 domain
hCD71 [1]: 1.09e+06 | hCD71:HSA [2]: 58

B7: SEQ ID NO 264 (designed binder)
chain: MLPAPKNLVVSRVTEDSARLSWTAPDAAFDSFRIKYQEWWVEGEAIVLTVPGSERSYDLTGLKPGTEYVVQIAGVKGGLSSYPLSAIFTT
notes: FN3 domain
hCD71 [1]: 2.98e+06 | hCD71:HSA [2]: 1170

B9: SEQ ID NO 255 (designed binder)
chain: B4 chain with W33D, E39L, L40I, S42R, R69W, Y71G, Y79W, P80L, S82R
notes: FN3 domain
hCD71 [1]: 1.84e+06 | hCD71:HSA [2]: 403

B11: SEQ ID NO 268 (designed binder)
chain: MLPAPKNLVVSRVTEDSARLSWTAPDAAFDSFTIVYGEAGAFGEAIVLTVPGSERSYDLTGLKPGTEYDVLIEGVKGGNLSWPLSAIFTT
notes: FN3 domain
hCD71 [1]: 1.6e+06 | hCD71:HSA [2]: 626

B12: SEQ ID NO 246 (designed binder)
chain: B11 chain with V35A, G37N, A39Q, G40N, A41H, F42Y, D69G, L71W, N79T
notes: FN3 domain
hCD71 [1]: 1.57e+06 | hCD71:HSA [2]: 1120

B13: SEQ ID NO 263 (designed binder)
chain: B5 chain with V88S
notes: FN3 domain
hCD71 [1]: 1.88e+06 | hCD71:HSA [2]: 92

B15: SEQ ID NO 243 (designed binder)
chain: MLPAPKNLVVSRVTEDSARLSWTAPDAAFDSFAIPYYEWVNHGEAIVLTVPGSERSYDLTGLKPGTEYPVGIDGVKGGGPSWPLSAIFTT
notes: FN3 domain
hCD71 [1]: 2.4e+06 | hCD71:HSA [2]: 237

B16: SEQ ID NO 267 (designed binder)
chain: B11 chain with T33P, G37S, A39I, G40H, A41V, F42I, L71W, N79H, W82E
notes: FN3 domain
hCD71 [1]: 1.97e+06 | hCD71:HSA [2]: 166

B20: SEQ ID NO 272 (designed binder)
chain: MLPAPKNLVVSRVTEDSARLSWTAPDAAFDSFGIPYAESTPTGEAIVLTVPGSERSYDLTGLKPGTEYSVLIHGVKGGHLSDPLSAIFTT
notes: FN3 domain
hCD71 [1]: 1.78e+06 | hCD71:HSA [2]: 199

B21: SEQ ID NO 245 (designed binder)
chain: MLPAPKNLVVSRITEDSARLSWTAPDAAFDSFGIAYNEGDHYGEAIVLTVPGSERSYDLTGLKPGTEYSVWIEGVKGGNLSYPLSAIFTT
notes: FN3 domain
hCD71 [1]: 2.62e+06 | hCD71:HSA [2]: 903

B22: SEQ ID NO 258 (designed binder)
chain: B20 chain with G33F, S39P, T40S, S69D, L71W, H73E, H79V, D82W
notes: FN3 domain
hCD71 [1]: 1.04e+06 | hCD71:HSA [2]: 98

B24: SEQ ID NO 271 (designed binder)
chain: B20 chain with G33Y, S39T, T40R, P41D, T42D, H79D, D82S
notes: FN3 domain
hCD71 [1]: 2.11e+06 | hCD71:HSA [2]: 693

B29: SEQ ID NO 240 (designed binder)
chain: B7 chain with Q37L, V41L, E42G, V69W, Q71D, A73Q, L79V, S80L, Y82W
notes: FN3 domain
hCD71 [1]: 3.03e+06 | hCD71:HSA [2]: 1480

B30: SEQ ID NO 265 (designed binder)
chain: MLPAPKNLVVSRVTEDSARLSWTAPDAAFDSFWIYYIETSHQGEAIVLTVPGSERSYDLTGLKPGTEYFVLIKGVKGGYDSVPLSAIFTT
notes: FN3 domain
hCD71 [1]: 3.61e+06 | hCD71:HSA [2]: 913

B34: SEQ ID NO 256 (designed binder)
chain: MLPAPKNLVVSRVTEDSARLSWTAPDAAFDSFHIVYHEPRPSGEAIVLTVPGSERSYDLTGLKPGTEYEVGIVGVKGGDLSVPLSAIFTT
notes: FN3 domain
hCD71 [1]: 1.98e+06 | hCD71:HSA [2]: 900

B35: SEQ ID NO 262 (designed binder)
chain: B4 chain with W33A, Y37F, E39Y, L40T, S42E, R69Y, Y71G, P80L, S82R
notes: FN3 domain
hCD71 [1]: 4.38e+06 | hCD71:HSA [2]: 1860

B36: SEQ ID NO 254 (designed binder)
chain: B20 chain with G33F, S39P, T40S, F88S
notes: FN3 domain
hCD71 [1]: 3.24e+06 | hCD71:HSA [2]: 36

B37: SEQ ID NO 81 (designed binder)
chain: MLPAPKNLVVSRVTEDSARLSWTAPDAAFDSFVIEYREGAWYGEAIVLTVPGSERSYDLTGLKPGTEYAVYIPGVKGGPRSFPLSAIFTT
notes: FN3 domain
hCD71 [1]: 537000 | hCD71:HSA [2]: 19

B38: SEQ ID NO 84 (designed binder)
chain: MLPAPKNLVVSRVTEDSARLSWTAPDAAFDSFPIYYWEVFPAGEAIELDVPGSERSYDLTGLKPGTEYFVRIEGVKGGASSYPLRAEFTT
notes: FN3 domain
hCD71 [1]: 1.73e+06 | hCD71:HSA [2]: 449

The next lines start with the values.

hCD71 [1]: 659000 | hCD71:HSA [2]: 16
B2: SEQ ID NO 288 (designed binder)
chain: B20 chain with G33L, S39T, T40S, T42S, H79D, L80Y, D82S, F88S
notes: FN3 domain

hCD71 [1]: 3.59e+06 | hCD71:HSA [2]: 520
B3: SEQ ID NO 293 (designed binder)
chain: B4 chain with W33T, Y37W, E39F, L40T, R69D, Y71S, Y79W, P80L, S82Y
notes: FN3 domain

hCD71 [1]: 3.38e+06 | hCD71:HSA [2]: 891
B8: SEQ ID NO 295 (designed binder)
chain: B5 chain with Q40I, P42S, N69P, T71V, F79H, M82Q, V88F
notes: FN3 domain

hCD71 [1]: 4.07e+06 | hCD71:HSA [2]: 1810
B10: SEQ ID NO 306 (designed binder)
chain: B4 chain with W33Y, Y37F, E39T, L40Q, S42Y, R69Y, Y71A, P80L, S82R
notes: FN3 domain

hCD71 [1]: 1.21e+06 | hCD71:HSA [2]: 48
B14: SEQ ID NO 305 (designed binder)
chain: MLPAPKNLVVSRVTEDSARLSWTAPDAAFDSFEIDYDEPFVYGEAIVLTVPGSERSYDLTGLKPGTEYRVFIFGVKGGNGSWPLSAIFTT
notes: FN3 domain

hCD71 [1]: 2.95e+06 | hCD71:HSA [2]: 472
B17: SEQ ID NO 283 (designed binder)
chain: B20 chain with G33P, P35A, S39P, T40R, T42D, H79L, D82S
notes: FN3 domain

hCD71 [1]: 2.44e+06 | hCD71:HSA [2]: 1110
B18: SEQ ID NO 285 (designed binder)
chain: B20 chain with G33L, S39T, T40S, T42S, H79D, L80Y, D82S
notes: FN3 domain

hCD71 [1]: 3.85e+06 | hCD71:HSA [2]: 206
B19: SEQ ID NO 282 (designed binder)
chain: B34 chain with H33A, S42D, G71V, V73L, D79V, L80H, V82Y
notes: FN3 domain

hCD71 [1]: 3.88e+06 | hCD71:HSA [2]: 706
B23: SEQ ID NO 287 (designed binder)
chain: MLPAPKNLVVSRVTEDSARLSWTAPDAAFDSFTIEYHESGPVGEAIVLTVPGSERSYDLTGLKPGTEYMVWIFGVKGGFVSRPLSAIFTT
notes: FN3 domain

hCD71 [1]: 2.51e+06 | hCD71:HSA [2]: 74
B25: SEQ ID NO 298 (designed binder)
chain: B20 chain with G33P, P35A, S39P, T40R, T42D, H79L, D82S, F88S
notes: FN3 domain

hCD71 [1]: 2.31e+06 | hCD71:HSA [2]: 571
B26: SEQ ID NO 300 (designed binder)
chain: B5 chain with Q73H, F79T, V88F
notes: FN3 domain

hCD71 [1]: 2.27e+06 | hCD71:HSA [2]: 1060
B27: SEQ ID NO 289 (designed binder)
chain: B15 chain with W39D, V40T, H42D, P69W, G71S, D73Q, G79T, P80V, W82G
notes: FN3 domain

hCD71 [1]: 720000 | hCD71:HSA [2]: 58
B28: SEQ ID NO 276 (designed binder)
chain: B7 chain with K35D, Q37L, W39L, W40T, V41S, E42L, V69P, Q71P, A73L, Y82W
notes: FN3 domain

hCD71 [1]: 4.09e+06 | hCD71:HSA [2]: 1300
B31: SEQ ID NO 279 (designed binder)
chain: B4 chain with W33S, E39S, L40V, S42L, R69D, Y71S, P80L, S82R
notes: FN3 domain

hCD71 [1]: 2.25e+06 | hCD71:HSA [2]: 591
B32: SEQ ID NO 275 (designed binder)
chain: B20 chain with G33L, P35A, S39V, P41L, T42H, H79R, L80N
notes: FN3 domain

hCD71 [1]: 3.34e+06 | hCD71:HSA [2]: 1240
B33: SEQ ID NO 304 (designed binder)
chain: B4 chain with W33I, E35T, Y37W, E39H, L40V, S42D, R69F, Y71E, P80L, S82K
notes: FN3 domain
